# Measurements from paper PMC6092318, “Keap1–MCM3 interaction is a potential coordinator of molecular machineries of antioxidant response and genomic DNA replication in metazoa” (Scientific Reports, 2018).
# B1: FLAG-MCM3 (mouse, wild type, baculovirus) (natural protein, UniProt P25206 1-812, looked up)
# chain: MAGTVVLDDVELREAQRDYLDFLDDEEDQGIYQNKVRELISDNQYRLIVSVNDLRRKNEKRANRLLNNAFEELVAFQRALKDFVASIDATYAKQYEEFYIGLEGSFGSKHVSPRTLTSCFLSCVVCVEGIVTKCSLVRPKVVRSVHYCPATKKTIERRYSDLTTLVAFPSSSVYPTKDEENNPLETEYGLSVYKDHQTITIQEMPEKAPAGQLPRSVDVILDDDLVDKVKPGDRIQVVGTYRCLPGKKGCYTSGTFRTVLIACNVKQMSKDIQPAFSADDIAKIKKFSKTRSKDVFEQLARSLAPSIHGHDYVKKAILCLLLGGVERELENGSHIRGDINILLIGDPSVAKSQLLRYVLCTAPRAIPTTGRGSSGVGLTAAVTTDQETGERRLEAGAMVLADRGVVCIDEFDKMSDMDRTAIHEVMEQGRVTIAKAGIHARLNARCSVLAAANPVYGRYDQYKTPMENIGLQDSLLSRFDLLFIMLDQMDPEQDREISDHVLRMHQYRAPGEQDGDALPLGSSVDILATDDPDFTQDDQQDTRIYEKHDSLLHGTKKKKEKMVSAAFMKKYIHVAKIIKPTLTQESAAYIAEEYSRLRSQDSMSSDTARTSPVTARTLETLIRLATAHAKARMSKTVDLQDAEEAVELVQYAYFKKVLEKEKKRKKASEDESDLEDEEEKSQEDTEQKRKRRKTHAKDGESYDPYDFSEAETQMPQVHTPKTDDSQEKTDDSQETQDSQKVELSEPRLKAFKAALLEVFQEAHEQSVGMLHLTESINRNREEPFSSEEIQACLSRMQDDNQVMVSEGIVFLI
# notes: MCM3, mouse; cDNA cloned into pFastBac1; also called WT MCM3; source: Sf9, baculovirus infected, in extract; not shown: FLAG, N-terminal, kept
# Legend:
# [1] = biological target: FLAG-MCM3 (mouse MCM3 expressed in CHO-EBNALT85 cells) (mouse) (UniProt P25206); assay: co-IP; anti-FLAG M2 beads on whole cell, nuclear and cytoplasmic extracts of FLAG-MCM3 expressing CHOEBNALT85 cells, 150 mM KCl, Western blot
# [2] = biological target: T1, strep-Keap1 (mouse, wild type, baculovirus) (mouse, UniProt Q9Z2X8 1-624); assay: SEC; Superose 6 10/300 GL of the strep-Keap1 - FLAG-MCM3 tandem purified complex, 100 mM KCl buffer; densitometry of the Coomassie stained gel; conditions: partners not purified
# T1 construct: Keap1, mouse; cDNA cloned into pFastBac1; also called strep tagged Keap1; strp-Keap1; source: Sf9, baculovirus infected, in extract; not shown: Strep-tag II, N-terminal, kept
# T1 sequence (Q9Z2X8 whole entry): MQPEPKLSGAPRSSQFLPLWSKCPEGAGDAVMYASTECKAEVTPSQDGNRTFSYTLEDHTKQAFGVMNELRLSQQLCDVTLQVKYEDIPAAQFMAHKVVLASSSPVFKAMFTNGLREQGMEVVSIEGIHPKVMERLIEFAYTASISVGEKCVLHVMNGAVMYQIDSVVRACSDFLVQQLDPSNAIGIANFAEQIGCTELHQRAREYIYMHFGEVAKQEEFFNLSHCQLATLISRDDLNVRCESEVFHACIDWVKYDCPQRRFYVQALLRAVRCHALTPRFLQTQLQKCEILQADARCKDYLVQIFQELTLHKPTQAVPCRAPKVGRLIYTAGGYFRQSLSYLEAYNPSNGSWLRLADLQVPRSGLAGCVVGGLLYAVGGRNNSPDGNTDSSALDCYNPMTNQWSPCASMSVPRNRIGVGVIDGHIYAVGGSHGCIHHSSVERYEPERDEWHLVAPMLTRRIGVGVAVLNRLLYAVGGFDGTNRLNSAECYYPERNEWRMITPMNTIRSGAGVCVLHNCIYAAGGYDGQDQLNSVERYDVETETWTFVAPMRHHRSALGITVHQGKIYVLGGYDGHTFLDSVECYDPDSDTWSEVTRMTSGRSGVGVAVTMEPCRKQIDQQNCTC
# [3] = biological target: B1; assay: as above; conditions: partners not purified
molecule,measurement,setting,value
"Keap1 (endogenous, CHO cells) (natural protein)",percent of soluble MCM3 and Keap1 pulled down together,[1],5 to 10%
B1,stoichiometry N,[2],~1
"HA-MCM-BP (mouse, baculovirus) (natural protein, UniProt Q8R3C0 1-642, looked up, MCM-BP, mouse; cDNA cloned into pFastBac1; source: Sf9, baculovirus infected, in extract) MPCGEDWLSHPLGIVQGFFAQNGVNPDWEKKVIEYFKEKLKENNAPKWVPSLNEVPLHYLKPNSFVKFRCMIQDMFDPEFYMGIYETVNQNTKARVLHFGKYRDVAECGPQQELDLSSPRSTTSERQTFYCVPVPGESSWVKEAYVNANQARVSPSTSYTPSRHKRSYEDDEDMDLQPSKQKEQHPGSRQAGGLGGLHWCGEPKRLETEASSGQQLNTLNLSSPFDLNFPLPGEKGPACLVKVYEDWDCFKVNDVLELYGVLSVDPVLSVLNSEERDASALLDPMECTDMAEEQRVHSPPASLVPRIHVILAQKLQHINPLLPTCLNKEESRSCQFVSNFMSELSPVRAELLGFLTHALLGDSLAAEYLILHLISTVYTRRDVLPLGKFTVNLSGCPQNSTFTEHLYRIIQHLVPASFRLQMTIENMNQLKLIPHKDYTANRLVSGLLQLPNNTSLVIDETLLEQGQLDTPGVHNVTALSNLITWQKVDYDFSYHQMEFPCNINVLITSEGRSLLPADCQIHLQPQLIPPNMEEYMNGLLSAVLPSVLNKFRIYLTLLRFLDYNLSDDITKAVEDDFVEMRKDDPQSITADDLHQLLVVARFLSLSVGQTTLSRERWLRAKQLELSRKARLQQQKSVNGNEL",stoichiometry N,[3],~1
